Paper PMC10887324, “Electrochemical Aptasensing Platform for the Detection of Retinol Binding Protein-4”

Columns and labels:
[1] = biological target: T1, Retinol binding protein-4 (RBP-4) (UniProt P02753 19-201); assay: EIS (electrochemical impedance, Langmuir linearization); same measurement as the Kd row; 2 mM MgCl2; 0.1 M PBS + 2 mM MgCl2, Fe(CN)6 3-/4- redox probe, aptamer on gold electrode with MCH; aptamer folded at 70 C 1 min then ice 10 min; immobilization at room temp
[2] = biological target: T1, Retinol binding protein-4 (RBP-4); assay: EIS (electrochemical impedance, Langmuir linearization); folded aptamer, 0.1 uM in immobilization; 2 mM MgCl2; Fe(CN)6 3-/4- probe; 0.1 M PBS + 2 mM MgCl2, Fe(CN)6 3-/4- redox probe, aptamer on gold electrode with MCH; aptamer folded at 70 C 1 min then ice 10 min; immobilization at room temp

Binder: ACAGTAGTGAGGGGTCCGTCGTGGGGTAGTTGGGTCGTGG (ssDNA, 5'-thiol (-SH)) [Apt-RBP-4]
- Ka [1]: 2e+07 M⁻¹
- Kd [2]: 50 nM
